Data as given in patent US20150344570A1 (published 2015).

How the values were obtained:
[1] = molecular target: T1, FcγRIa extracellular domain with C-terminal His tag (human, UniProt P12314 16-292); experiment: SPR (Biacore), captured antibody, FcγR as analyte; relative binding
T1 construct: extracellular domain; expressed in FreeStyle293 cells; analyte in Biacore; also called FcgRI; 1a

[2] = molecular target: T2, FcγRIIb extracellular domain with C-terminal His tag (human, UniProt P31994 43-217); experiment: as above
T2 construct: extracellular domain; expressed in FreeStyle293 cells; analyte in Biacore; also called FcgRIIb; 2b
T2 sequence (looked up): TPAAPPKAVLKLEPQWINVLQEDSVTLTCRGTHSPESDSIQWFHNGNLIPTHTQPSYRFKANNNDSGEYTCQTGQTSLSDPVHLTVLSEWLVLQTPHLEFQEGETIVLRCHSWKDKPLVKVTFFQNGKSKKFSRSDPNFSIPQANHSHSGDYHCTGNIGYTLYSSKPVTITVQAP

T1 sequence (P12314 16-292): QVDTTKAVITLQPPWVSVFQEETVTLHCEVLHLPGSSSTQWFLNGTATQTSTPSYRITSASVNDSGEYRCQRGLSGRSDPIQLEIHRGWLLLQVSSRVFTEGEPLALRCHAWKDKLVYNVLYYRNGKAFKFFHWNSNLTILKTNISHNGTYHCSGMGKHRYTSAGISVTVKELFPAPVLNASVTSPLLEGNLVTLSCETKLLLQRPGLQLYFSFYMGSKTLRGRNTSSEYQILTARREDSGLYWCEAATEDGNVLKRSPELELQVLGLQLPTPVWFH

Binder | He/Con_1a [1] | He/Con_2b [2]
GpH7-A5/GpH7-B3 variant Q295_09D/GpL16-k0 (antibody, human IgG1, kappa, He Ab; IgG1, mutation in one H chain) heavy 1: not shown heavy 2: not shown light: DIVMTQSPLSLPVTPGEPASISCQASESLVHSNRNTYLHWYLQKPGQSPQLLIYKVSNRFSGVPDRFSGSGSGTDFTLKISRVEAEDVGVYYCSQNTHVPPTFGQGTKVEIERTVAAPSVFIFPPSDEQLKSGTASVVCLLNNFYPREAKVQWKVDNALQSGNSQESVTEQDSKDSTYSLSSTLTLSKADYEKHKVYACEVTHQGLSSPVTKSFNRGEC | 100 % of HeCon Ab (GpH7-A5/GpH7-B3/GpL16-k0 = 100) | 60.8 % of HeCon Ab (GpH7-A5/GpH7-B3/GpL16-k0 = 100)
GpH7-A5/GpH7-B3 variant Q295_11K/GpL16-k0 (antibody, human IgG1, kappa, He Ab; IgG1, mutation in one H chain) heavy 1: not shown heavy 2: not shown light: DIVMTQSPLSLPVTPGEPASISCQASESLVHSNRNTYLHWYLQKPGQSPQLLIYKVSNRFSGVPDRFSGSGSGTDFTLKISRVEAEDVGVYYCSQNTHVPPTFGQGTKVEIERTVAAPSVFIFPPSDEQLKSGTASVVCLLNNFYPREAKVQWKVDNALQSGNSQESVTEQDSKDSTYSLSSTLTLSKADYEKHKVYACEVTHQGLSSPVTKSFNRGEC | 101 % of HeCon Ab (GpH7-A5/GpH7-B3/GpL16-k0 = 100) | 70.4 % of HeCon Ab (GpH7-A5/GpH7-B3/GpL16-k0 = 100)
GpH7-A5/GpH7-B3 variant Q295_12R/GpL16-k0 (antibody, human IgG1, kappa, He Ab; IgG1, mutation in one H chain) heavy 1: not shown heavy 2: not shown light: DIVMTQSPLSLPVTPGEPASISCQASESLVHSNRNTYLHWYLQKPGQSPQLLIYKVSNRFSGVPDRFSGSGSGTDFTLKISRVEAEDVGVYYCSQNTHVPPTFGQGTKVEIERTVAAPSVFIFPPSDEQLKSGTASVVCLLNNFYPREAKVQWKVDNALQSGNSQESVTEQDSKDSTYSLSSTLTLSKADYEKHKVYACEVTHQGLSSPVTKSFNRGEC | 100 % of HeCon Ab (GpH7-A5/GpH7-B3/GpL16-k0 = 100) | 65.2 % of HeCon Ab (GpH7-A5/GpH7-B3/GpL16-k0 = 100)
GpH7-A5/GpH7-B3 variant Q295_13S/GpL16-k0 (antibody, human IgG1, kappa, He Ab; IgG1, mutation in one H chain) heavy 1: not shown heavy 2: not shown light: DIVMTQSPLSLPVTPGEPASISCQASESLVHSNRNTYLHWYLQKPGQSPQLLIYKVSNRFSGVPDRFSGSGSGTDFTLKISRVEAEDVGVYYCSQNTHVPPTFGQGTKVEIERTVAAPSVFIFPPSDEQLKSGTASVVCLLNNFYPREAKVQWKVDNALQSGNSQESVTEQDSKDSTYSLSSTLTLSKADYEKHKVYACEVTHQGLSSPVTKSFNRGEC | 102 % of HeCon Ab (GpH7-A5/GpH7-B3/GpL16-k0 = 100) | 56.9 % of HeCon Ab (GpH7-A5/GpH7-B3/GpL16-k0 = 100)
GpH7-A5/GpH7-B3 variant Q295_16H/GpL16-k0 (antibody, human IgG1, kappa, He Ab; IgG1, mutation in one H chain) heavy 1: not shown heavy 2: not shown light: DIVMTQSPLSLPVTPGEPASISCQASESLVHSNRNTYLHWYLQKPGQSPQLLIYKVSNRFSGVPDRFSGSGSGTDFTLKISRVEAEDVGVYYCSQNTHVPPTFGQGTKVEIERTVAAPSVFIFPPSDEQLKSGTASVVCLLNNFYPREAKVQWKVDNALQSGNSQESVTEQDSKDSTYSLSSTLTLSKADYEKHKVYACEVTHQGLSSPVTKSFNRGEC | 102 % of HeCon Ab (GpH7-A5/GpH7-B3/GpL16-k0 = 100) | 62.7 % of HeCon Ab (GpH7-A5/GpH7-B3/GpL16-k0 = 100)
GpH7-A5/GpH7-B3 variant Q295_18N/GpL16-k0 (antibody, human IgG1, kappa, He Ab; IgG1, mutation in one H chain) heavy 1: not shown heavy 2: not shown light: DIVMTQSPLSLPVTPGEPASISCQASESLVHSNRNTYLHWYLQKPGQSPQLLIYKVSNRFSGVPDRFSGSGSGTDFTLKISRVEAEDVGVYYCSQNTHVPPTFGQGTKVEIERTVAAPSVFIFPPSDEQLKSGTASVVCLLNNFYPREAKVQWKVDNALQSGNSQESVTEQDSKDSTYSLSSTLTLSKADYEKHKVYACEVTHQGLSSPVTKSFNRGEC | 102 % of HeCon Ab (GpH7-A5/GpH7-B3/GpL16-k0 = 100) | 64.9 % of HeCon Ab (GpH7-A5/GpH7-B3/GpL16-k0 = 100)

Other lines, results leading:

He/Con_1a [1] | He/Con_2b [2] | Binder
100 % of HeCon Ab (GpH7-A5/GpH7-B3/GpL16-k0 = 100) | 89.2 % of HeCon Ab (GpH7-A5/GpH7-B3/GpL16-k0 = 100) | GpH7-A5/GpH7-B3 variant K326_12R/GpL16-k0 (antibody, human IgG1, kappa, He Ab; IgG1, mutation in one H chain) heavy 1: not shown heavy 2: not shown light: DIVMTQSPLSLPVTPGEPASISCQASESLVHSNRNTYLHWYLQKPGQSPQLLIYKVSNRFSGVPDRFSGSGSGTDFTLKISRVEAEDVGVYYCSQNTHVPPTFGQGTKVEIERTVAAPSVFIFPPSDEQLKSGTASVVCLLNNFYPREAKVQWKVDNALQSGNSQESVTEQDSKDSTYSLSSTLTLSKADYEKHKVYACEVTHQGLSSPVTKSFNRGEC
103 % of HeCon Ab (GpH7-A5/GpH7-B3/GpL16-k0 = 100) | 94.8 % of HeCon Ab (GpH7-A5/GpH7-B3/GpL16-k0 = 100) | GpH7-A5/GpH7-B3 variant Q295_10E/GpL16-k0 (antibody, human IgG1, kappa, He Ab; IgG1, mutation in one H chain) heavy 1: not shown heavy 2: not shown light: DIVMTQSPLSLPVTPGEPASISCQASESLVHSNRNTYLHWYLQKPGQSPQLLIYKVSNRFSGVPDRFSGSGSGTDFTLKISRVEAEDVGVYYCSQNTHVPPTFGQGTKVEIERTVAAPSVFIFPPSDEQLKSGTASVVCLLNNFYPREAKVQWKVDNALQSGNSQESVTEQDSKDSTYSLSSTLTLSKADYEKHKVYACEVTHQGLSSPVTKSFNRGEC
103 % of HeCon Ab (GpH7-A5/GpH7-B3/GpL16-k0 = 100) | 66.8 % of HeCon Ab (GpH7-A5/GpH7-B3/GpL16-k0 = 100) | GpH7-A5/GpH7-B3 variant Q295_14T/GpL16-k0 (antibody, human IgG1, kappa, He Ab; IgG1, mutation in one H chain) heavy 1: not shown heavy 2: not shown light: DIVMTQSPLSLPVTPGEPASISCQASESLVHSNRNTYLHWYLQKPGQSPQLLIYKVSNRFSGVPDRFSGSGSGTDFTLKISRVEAEDVGVYYCSQNTHVPPTFGQGTKVEIERTVAAPSVFIFPPSDEQLKSGTASVVCLLNNFYPREAKVQWKVDNALQSGNSQESVTEQDSKDSTYSLSSTLTLSKADYEKHKVYACEVTHQGLSSPVTKSFNRGEC
102 % of HeCon Ab (GpH7-A5/GpH7-B3/GpL16-k0 = 100) | 65.4 % of HeCon Ab (GpH7-A5/GpH7-B3/GpL16-k0 = 100) | GpH7-A5/GpH7-B3 variant Q295_15Y/GpL16-k0 (antibody, human IgG1, kappa, He Ab; IgG1, mutation in one H chain) heavy 1: not shown heavy 2: not shown light: DIVMTQSPLSLPVTPGEPASISCQASESLVHSNRNTYLHWYLQKPGQSPQLLIYKVSNRFSGVPDRFSGSGSGTDFTLKISRVEAEDVGVYYCSQNTHVPPTFGQGTKVEIERTVAAPSVFIFPPSDEQLKSGTASVVCLLNNFYPREAKVQWKVDNALQSGNSQESVTEQDSKDSTYSLSSTLTLSKADYEKHKVYACEVTHQGLSSPVTKSFNRGEC
